From patent US20150368323A1 (MorphoSys, published 2015)
Residue numbers refer to the chain shown, from its start. Ends that are not written are not given here.

T1: MprF protein of Staphylococcus aureus (Staphylococcus aureus, UniProt Q2G2M2 1-840)
T1 construct: Presented on whole S. aureus cells (Protein A deletion mutant, delta spa; SA113 delta spa in the functional assays); also called MprF on S. aureus
T1 sequence: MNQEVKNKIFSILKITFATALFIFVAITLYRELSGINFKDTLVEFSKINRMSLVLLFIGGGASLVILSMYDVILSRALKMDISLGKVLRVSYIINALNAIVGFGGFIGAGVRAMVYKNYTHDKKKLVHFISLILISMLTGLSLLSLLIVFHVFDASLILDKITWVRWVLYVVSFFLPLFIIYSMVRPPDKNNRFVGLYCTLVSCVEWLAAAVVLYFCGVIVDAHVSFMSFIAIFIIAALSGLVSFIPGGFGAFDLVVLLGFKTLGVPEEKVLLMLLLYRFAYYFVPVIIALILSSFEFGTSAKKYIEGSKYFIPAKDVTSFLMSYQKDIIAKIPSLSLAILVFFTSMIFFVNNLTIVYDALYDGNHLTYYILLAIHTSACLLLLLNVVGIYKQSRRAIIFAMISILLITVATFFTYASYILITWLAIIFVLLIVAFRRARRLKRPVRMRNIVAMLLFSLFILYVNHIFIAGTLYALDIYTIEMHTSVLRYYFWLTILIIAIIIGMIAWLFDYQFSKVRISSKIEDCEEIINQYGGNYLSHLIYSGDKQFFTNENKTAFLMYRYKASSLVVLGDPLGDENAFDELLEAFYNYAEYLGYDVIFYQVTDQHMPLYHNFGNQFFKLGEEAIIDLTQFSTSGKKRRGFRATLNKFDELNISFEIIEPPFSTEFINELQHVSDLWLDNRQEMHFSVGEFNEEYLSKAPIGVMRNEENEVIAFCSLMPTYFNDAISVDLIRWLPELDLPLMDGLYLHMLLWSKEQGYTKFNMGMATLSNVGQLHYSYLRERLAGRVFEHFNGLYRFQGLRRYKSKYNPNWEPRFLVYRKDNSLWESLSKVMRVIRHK

T2: Linear peptide, loop 4 of MprF (Staphylococcus aureus, also: N-terminal Cys coupled to BSA or transferrin, called biotinylated legend)
T2 construct: coated as BSA or transferrin conjugate in the ELISA; also called linear loop 4 peptide
T2 peptide: CGLGFKTLGVPEEKV

T3: Linear peptide, loop 1 of MprF (Staphylococcus aureus, added N-terminal Cysteine coupled to carrier protein BSA or transferrin; FIG. 2 legend calls it biotinylated)
T3 construct: coated as BSA or transferrin conjugate in the ELISA; also called linear loop 1 peptide
T3 peptide: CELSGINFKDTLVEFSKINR

B1: M-L1 (antibody, V domains shown)
VH: QVQLVQSGAEVKKPGSSVKVSCKASGGTFNSYAIHWVRQAPGQGLEWMGGIIPIFGIANYAQKFQGRVTITADESTSTAYMELSSLRSEDTAVYYCARDQYTYDYYRAFDYWGQGTLVTVSS
VL: DIVLTQSPATLSLSPGERATLSCRASQSVRDNLAWYQQKPGQAPRLLIYGASNRATGIPARFSGSGSGTDFTLTISSLEPEDFAVYYCQQYDHSPRTFGQGTKVEIKR
notes: Framework VH1A kappa 3
B2: M-C5.1 (antibody, V domains shown)
VH: QVQLVQSGAEVKKPGSSVKVSCKASGGTFSSYAISWVRQAPGQGLEWMGGIVPIFGTANYAQKFQGRVTITADESTSTAYMELSSLRSEDTAVYYCARVRYGYWDVWGQGTLVTVSS
VL: DIQMTQSPSSLSASVGDRVTITCRASQDIANWLNWYQQKPGKAPKLLIYAASSLQSGVPSRFSGSGSGTDFTLTISSLQPEDFATYYCQQYISLPITFGQGTKVEIKR
notes: Framework VH1A kappa 1; also called M-05.1
B3: M-C5.2 (antibody, V domains shown)
VH: EVQLLESGGGLVQPGGSLRLSCAASGFTFSSYAVHWVRQAPGKGLEWVSVISGRGGSTYYADSVKGRFTISRDNSKNTLYLQMNSLRAEDTAVYYCARDHGYFDYWGQGTLVTVSS
VL: DIQMTQSPSSLSASVGDRVTITCRASQTISNHLGWYQQKPGKAPKLLIYTASNLQSGVPSRFSGSGSGTDFTLTISSLQPEDFATYYCQQYSHSSYTFGQGTKVEIKR
notes: Framework VH3-23 kappa 1; also called M-05.2
B4: M-C4.3 (antibody, V domains shown)
VH: QVQLVQSGAEVKKPGSSVKVSCKASGGTFSDHTISWVRQAPGQGLEWMGGIIPIVGIANYAQKFQGRVTITADESTSTAYMELSSLRSEDTAVYYCAREYYVPDSGWFDYWGQGTLVTVSS
VL: DIQMTQSPSSLSASVGDRVTITCRASQDISDYLVWYQQKPGKAPKLLIYDASNLQSGVPSRFSGSGSGTDFTLTISSLQPEDFATYYCQQYYHYRTFGQGTKVEIKR
notes: Framework VH1A kappa 1
B5: M-C4.5 (antibody, V domains shown)
VH: QVQLQQSGPGLVKPSQTLSLTCAISGDSVSSNSAAWNWIRQSPSRGLEWLGRTYYRSKWYNDYAVSVKSRITINPDTSKNQFSLQLNSVTPEDTAVYYCARSAEPSYAYYHGFDYWGQGTLVTVSS
VL: DIQLTQSPSFLSASVGDRVTITCRASQGISSYLAWYQQKPGKAPKLLIYAASTLQSGVPSRFSGSGSGTEFTLTISSLQPEDFATYYCQQRIIFPQTFGQGTKVEIKR
notes: Selected from the MorphoSys Ylanthia library; framework VH6-1
B6: M-C1 (antibody, V domains shown)
VH: EVQLLESGGGLVQPGGSLRLSCAASGFTFSSYAMNWVRQAPGKGLEWVSVISSDGSDTYYADSVKGRFTISRDNSKNTLYLQMNSLRAEDTAVYYCARESYYIGWDYWGQGTLVTVSS
VL: DIVLTQSPATLSLSPGERATLSCRASQRVSSSFLAWYQQKPGQAPRLLIYLASNRATGIPARFSGSGSGTDFTLTISSLEPEDFAVYYCLQYGHYPPTFGQGTKVEIKR
notes: Framework VH3-23 kappa 3
B7: M-L4 (antibody, V domains shown)
VH: EVQLLESGGGLVQPGGSLRLSCAASGFTFRSYAMSWVRQAPGKGLEWVSIISYDGSSTYYADSVKGRFTISRDNSKNTLYLQMNSLRAEDTAVYYCARTATSGSRGYFDYWGQGTLVTVSS
VL: B2 VL with A30S, N31S, Y49F, A50G, S53T, Y91H, I92Y, S93T, L94S, I96V
notes: Framework VH3-23 kappa 1
B8: M-C4.2 (antibody, V domains shown)
VH: EVQLLESGGGLVQPGGSLRLSCAASGFTFSSYAMHWVRQAPGKGLEWVSVISSVGSSTYYADSVKGRFTISRDNSKNTLYLQMNSLRAEDTAVYYCARGGLDVWGQGTLVTVSS
VL: B2 VL with A30S, N31K, W32Y, S53R, Y91G, I92D, L94T, I96F
notes: Framework VH3-23 kappa 1
B9: M-C6.1 (antibody, V domains shown)
VH: QVQLVQSGAEVKKPGSSVKVSCKASGGTFSIYAISWVRQAPGQGLEWMGGIIPEFGTANYAQKFQGRVTITADESTSTAYMELSSLRSEDTAVYYCARSQIYTLSYPKWFDFWGQGTLVTVSS
VL: B2 VL with A30S, W32Y, A50D, S53N, Q89L, I92L, S93Q, L94S, I96K
notes: Framework VH1A kappa 1
B10: M-C6.2 (antibody, V domains shown)
VH: QVQLVQSGAEVKKPGSSVKVSCKASGGTFSSYAISWVRQAPGQGLEWMGGIIPILGIANYAQKFQGRVTITADESTSTAYMELSSLRSEDTAVYYCARSLPYRSDLYGFSRWSYHRVGMDVWGQGTLVTVSS
VL: B2 VL with A30S, W32T, S53T, Y91V, I92G, L94F, I96Y
notes: Framework VH1A kappa 1

molecular target: T1, MprF protein of Staphylococcus aureus; test: whole cell ELISA on S. aureus delta spa versus delta spa delta mprF

| Binder | binding result |
| --- | --- |
| B1 | binds |
| B2 | binds |

molecular target: T1, MprF protein of Staphylococcus aureus; test: whole cell ELISA on S. aureus; E. coli as negative control

| Binder | binding result |
| --- | --- |
| B3 | binds |
| B4 | binds |
| B5 | binds |
| B6 | binds |
| B7 | binds |
| B8 | binds |
| B9 | binds |
| B10 | binds |

Molecular target: T2, Linear peptide, loop 4 of MprF
Test: ELISA, IgG on the peptide used in its selection (Table 2)

| Binder | binding result |
| --- | --- |
| B7 | binds |

Molecular target: T3, Linear peptide, loop 1 of MprF
Test: as above

| Binder | binding result |
| --- | --- |
| B1 | binds |
